Source: the Human Domainome abundance scans (Beltran et al. 2025)
± gives the uncertainty stated by the source.

B1: E3 ubiquitin-protein ligase Midline-1, residues 172 to 214; numbered along this chain, O15344 (parent)
chain: GLMCLEHEDEKVNMYCVTDDQLICALCKLVGRHRDHQVAALSE
B2: Steroid hormone receptor ERR2, residues 100 to 176; numbered along this chain, O95718 (parent)
chain: KRLCLVCGDIASGYHYGVASCEACKAFFKRTIQGNIEYSCPATNECEITKRRRKSCQACRFMKCLKVGMLKEGVRLD

Variants of: B1
Experiment: abundance fitness (aPCA) (normalised: wild type 0, dead -1); higher = more abundant; growth selection in yeast, the domain comes from the species named
Conditions: Homo sapiens

Variant	abundance fitness
D9E	-0.378 ± 0.087
D9C	0.13 ± 0.08
D9I	0.042 ± 0.095
G31L	-0.47 ± 0.067
G31Y	-0.19 ± 0.36
G31Q	-0.438 ± 0.13
G31E	-0.154 ± 0.064
G31F	-0.519 ± 0.14
G31T	-0.333 ± 0.095
G31A	-0.231 ± 0.058
C24Y	-0.364 ± 0.31
C24V	-0.971 ± 0.13
C24R	-1.02 ± 0.1
A39Q	0.04 ± 0.067
A39I	-0.08 ± 0.12
A39M	-0.089 ± 0.083
A39S	0.102 ± 0.066
A39C	0.003 ± 0.078
A39Y	-0.393 ± 0.15
E10V	-0.414 ± 0.059
E10A	-0.133 ± 0.059
E10Q	-0.181 ± 0.072
E10L	-0.214 ± 0.061
E10G	-0.316 ± 0.047
L41H	0.172 ± 0.075
L41P	0.297 ± 0.061

Variant	abundance fitness
L41V	-0.053 ± 0.054
L41M	0.069 ± 0.093
H33E	-0.576 ± 0.087
H33Q	-0.73 ± 0.19
H33L	-0.829 ± 0.1
H33R	-0.732 ± 0.073
H33G	-0.478 ± 0.056
H33K	-0.423 ± 0.14
L26H	0.353 ± 0.17
L26A	0.083 ± 0.058
L26I	-0.525 ± 0.21
L26P	0.295 ± 0.1
L26E	0.101 ± 0.054
Q21E	-0.047 ± 0.063
Q21V	0.044 ± 0.05
Q21H	0.231 ± 0.15
Q21M	0.052 ± 0.094
Q21T	-0.064 ± 0.099
L22G	0.364 ± 0.063
L22S	0.316 ± 0.11
E6P	-0.843 ± 0.17
E6F	0.023 ± 0.11
E6V	-0.183 ± 0.059
E6K	-0.206 ± 0.066
E6R	-0.297 ± 0.054
E6C	-0.447 ± 0.17

Variant	abundance fitness
E43R	-0.031 ± 0.058
E43D	-0.239 ± 0.2
E43V	-0.534 ± 0.16
E43G	-0.045 ± 0.078
K28V	-0.396 ± 0.068
K28Y	-0.161 ± 0.082
K28H	0.083 ± 0.098
K28W	-0.149 ± 0.083
K28G	0.013 ± 0.045
K28D	-0.038 ± 0.35
K28I	0.061 ± 0.16
K28L	-0.16 ± 0.054
K28F	-0.316 ± 0.22
K28Q	0.288 ± 0.066
L29F	-0.262 ± 0.14
L29V	0.008 ± 0.059
L29G	0.213 ± 0.045
L29M	0.086 ± 0.084
L29E	0.211 ± 0.06
L29D	0.241 ± 0.079
L29I	-0.205 ± 0.12
C27I	-0.538 ± 0.37
C27Y	-0.448 ± 0.35
C27D	-0.328 ± 0.11
C27A	-0.757 ± 0.081
C27N	-0.478 ± 0.45

Variant	abundance fitness
C27V	-1 ± 0.099
G1A	-0.361 ± 0.087
G1D	0.306 ± 0.091
G1Y	-0.192 ± 0.15
G1R	-0.081 ± 0.078
G1V	-0.211 ± 0.072
G1W	-0.611 ± 0.2
V12L	-0.233 ± 0.11
V12K	0.319 ± 0.14
V12C	-0.231 ± 0.37
V12Y	-0.02 ± 0.16
V12Q	0.328 ± 0.2
V12E	-0.122 ± 0.075
C16A	-0.569 ± 0.087
C16E	-0.185 ± 0.065
C16Q	-0.219 ± 0.076
C16G	-0.291 ± 0.049
H36R	-0.669 ± 0.079
H36G	-0.516 ± 0.062
H36Q	-0.284 ± 0.15
H36M	-1.04 ± 0.19
H36D	-0.798 ± 0.21
L5S	-0.012 ± 0.073
L5E	0.074 ± 0.066
L5G	-0.092 ± 0.062
L5W	-0.482 ± 0.1

Variant	abundance fitness
L5T	-0.039 ± 0.12
L5F	-0.13 ± 0.3
L5R	-0.062 ± 0.054
L2Y	0.109 ± 0.17
L2D	0.674 ± 0.13
L2M	0.544 ± 0.066
L2S	0.279 ± 0.066
D35F	-0.254 ± 0.17
D35I	-0.496 ± 0.23
D35R	-0.287 ± 0.061
D35A	-0.285 ± 0.073
D35T	-0.042 ± 0.17
D35V	-0.28 ± 0.062
D35E	0.088 ± 0.056
K11D	-0.258 ± 0.14
K11C	0.148 ± 0.081
K11P	-0.259 ± 0.18
K11F	-0.132 ± 0.22
D20W	-0.753 ± 0.1
D20C	-0.308 ± 0.098
D20R	-0.083 ± 0.05
D20V	-0.33 ± 0.064
D20A	-0.15 ± 0.059
D20H	-0.106 ± 0.11
D20N	0.033 ± 0.19
D20I	-0.543 ± 0.15

Variant	abundance fitness
I23F	-0.38 ± 0.31
I23T	-0.1 ± 0.075
I23V	0.151 ± 0.082
I23E	-0.233 ± 0.15
I23A	0.022 ± 0.068
I23W	-0.423 ± 0.39
V17G	0.092 ± 0.045
V17C	0.173 ± 0.072
V17N	0.545 ± 0.22
V30C	-0.115 ± 0.15
V30P	0.022 ± 0.071
V30K	0.235 ± 0.083
V30H	0.21 ± 0.064
Q37G	-0.146 ± 0.052
Q37I	-0.508 ± 0.29
Q37F	-0.347 ± 0.13
Q37M	-0.269 ± 0.15
Q37Y	-0.169 ± 0.13
Q37W	-0.6 ± 0.073
N13Y	-0.108 ± 0.16
N13L	-0.254 ± 0.077
N13T	-0.043 ± 0.11
N13P	-0.567 ± 0.28
N13A	-0.146 ± 0.055
N13S	-0.345 ± 0.095
N13V	-0.396 ± 0.055

Variant	abundance fitness
A40W	-0.406 ± 0.064
A40F	0.099 ± 0.22
A40P	0.228 ± 0.089
D19A	-0.928 ± 0.088
D19H	-0.496 ± 0.16
D19Q	-0.557 ± 0.14
D19L	-1.04 ± 0.22
D19S	-0.377 ± 0.096
D19M	-1.1 ± 0.19
M14E	0.176 ± 0.055
M14K	0.121 ± 0.21
M14S	0.267 ± 0.065
M14T	0.301 ± 0.084
M14F	-0.451 ± 0.49
C4S	-0.295 ± 0.085
C4D	-0.343 ± 0.083
C4E	-0.441 ± 0.096
C4Q	-0.314 ± 0.079
C4P	-1.18 ± 0.29
C4V	-0.944 ± 0.14
Y15R	0.258 ± 0.047
Y15C	0.059 ± 0.072
Y15T	-0.288 ± 0.086
Y15N	-0.165 ± 0.13
R32S	0.073 ± 0.061
R32Q	0.007 ± 0.07

Variant	abundance fitness
R32G	0.061 ± 0.048
R32T	0.09 ± 0.063
R32M	-0.219 ± 0.07
A25L	-0.28 ± 0.064
A25C	-0.097 ± 0.082
A25M	-0.23 ± 0.1
A25D	-0.073 ± 0.094
A25I	-0.266 ± 0.11
A25F	-0.233 ± 0.12
A25R	0.099 ± 0.052
S42I	-0.446 ± 0.13
S42A	-0.021 ± 0.051
S42G	0.078 ± 0.057
S42F	-0.656 ± 0.27
S42E	0.119 ± 0.06
S42P	0.056 ± 0.087
S42C	0.012 ± 0.084
S42Y	-0.34 ± 0.085
E8S	0.375 ± 0.058
E8H	0.056 ± 0.13
E8L	0.108 ± 0.069
E8N	-0.137 ± 0.11
E8K	0.221 ± 0.074
E8Q	0.051 ± 0.074
E8P	0.186 ± 0.081
E8D	-0.165 ± 0.09

Variant	abundance fitness
T18C	-0.256 ± 0.1
T18N	-0.048 ± 0.45
T18R	-0.101 ± 0.057
T18P	-0.492 ± 0.14
H7L	-1.03 ± 0.14
H7A	-0.703 ± 0.083
H7V	-1.34 ± 0.18
H7S	-0.765 ± 0.11
R34H	0.25 ± 0.095
R34D	-0.169 ± 0.087
R34V	-0.069 ± 0.059
M3Q	-0.276 ± 0.14
M3A	-0.022 ± 0.12
M3D	0.018 ± 0.21
M3R	-0.101 ± 0.057
M3E	-0.332 ± 0.1
M3I	0.089 ± 0.11
V38K	-0.209 ± 0.1
V38D	-0.131 ± 0.12
V38S	-0.008 ± 0.07
V38N	-0.243 ± 0.15
V38C	0.076 ± 0.088

Variants of: B2
Experiment: as above
Conditions: Homo sapiens

Variant	abundance fitness
F28Q	-0.761 ± 0.14
L65Q	-0.102 ± 0.062
L65F	-0.433 ± 0.12
C56E	-0.627 ± 0.1
Y14W	0.032 ± 0.062
Y14A	0.163 ± 0.063
N44L	-0.278 ± 0.059
R51E	0.152 ± 0.12
R30I	-0.775 ± 0.24
D9N	-0.365 ± 0.14
D9G	-0.208 ± 0.045
D9L	-0.454 ± 0.067
M62V	-0.006 ± 0.046
A42R	-0.024 ± 0.039
A42C	-0.501 ± 0.1
L3G	-0.118 ± 0.041
S20P	-0.321 ± 0.079
C7I	-1.05 ± 0.25
C7D	-0.602 ± 0.12
C7W	-1.22 ± 0.28
G73S	-0.031 ± 0.054
G73P	0.019 ± 0.071
F27V	-0.535 ± 0.064
F27I	-0.434 ± 0.16
C40G	-0.711 ± 0.068
C40Q	-0.604 ± 0.12

Variant	abundance fitness
K54V	0.007 ± 0.045
K54F	-0.243 ± 0.12
K54D	0.092 ± 0.077
L76K	-0.028 ± 0.07
C4P	-0.938 ± 0.19
C4K	-0.66 ± 0.13
L70K	0.13 ± 0.066
L70M	-0.03 ± 0.08
R2L	-0.136 ± 0.056
R2A	-0.226 ± 0.067
S12E	-0.02 ± 0.062
E47V	-0.14 ± 0.058
K66Q	-0.03 ± 0.072
K66R	-0.019 ± 0.043
K66T	0.162 ± 0.052
Y16N	-0.093 ± 0.069
G8F	-0.274 ± 0.15
G8T	-0.077 ± 0.061
A58F	-0.377 ± 0.17
C64V	-0.836 ± 0.094
C64L	-0.826 ± 0.1
E72N	0.02 ± 0.092
E72Y	-0.501 ± 0.15
E72S	-0.051 ± 0.054
G68M	-0.851 ± 0.19
G68D	-0.267 ± 0.11

Variant	abundance fitness
K25C	0.284 ± 0.051
K25A	0.445 ± 0.035
K25R	0.208 ± 0.031
K25P	0.278 ± 0.051
V74N	-0.036 ± 0.11
V74C	-0.501 ± 0.13
A11I	-0.377 ± 0.14
K71S	-0.025 ± 0.054
T31V	-0.223 ± 0.048
T31S	-0.175 ± 0.054
T31R	-0.678 ± 0.06
Q57S	-0.125 ± 0.046
E37Y	-0.745 ± 0.26
E37C	-0.158 ± 0.1
I10A	0.275 ± 0.046
N35C	-0.12 ± 0.073
N35S	-0.129 ± 0.053
N35M	-0.317 ± 0.067
K1C	-0.432 ± 0.16
K1W	-0.387 ± 0.099
C21I	-0.693 ± 0.14
V18M	0.218 ± 0.42
V67M	-0.061 ± 0.069
V67Q	-0.439 ± 0.09
V67S	-0.073 ± 0.054
S39L	0.283 ± 0.038

Variant	abundance fitness
S39H	0.103 ± 0.13
V6D	-0.934 ± 0.24
M69P	-0.782 ± 0.17
F61S	-0.509 ± 0.088
F61N	-0.541 ± 0.3
G34E	0.157 ± 0.051
C24A	-0.897 ± 0.095
K50N	0.071 ± 0.088
K50C	-0.51 ± 0.2
H15G	-0.068 ± 0.048
H15M	-0.325 ± 0.089
T49S	-0.164 ± 0.071
D77G	-0.194 ± 0.064
D77M	-0.35 ± 0.14
R52G	0.062 ± 0.045
A19M	-0.117 ± 0.055
Y38G	-0.394 ± 0.057
Y38S	-0.518 ± 0.08
Y38P	-0.547 ± 0.13
I36K	-0.129 ± 0.062
I36N	-0.185 ± 0.13
E45V	-0.144 ± 0.047
E45T	-0.209 ± 0.085
K29P	-0.841 ± 0.16
P41Y	0.018 ± 0.069
P41R	-0.158 ± 0.042
